Drawing on US12398179, this text covers IC50, fold increase in potency against WLAam and fold improvement in potency against YSA1-10am for eight molecules.

Non-standard residues stand in square brackets, D forms with d. No end group written: not given here. *: point of attachment. Biotin = O=C1N[C@H]2[C@H](CS[C@H]2CCCCC(=O)*)N1; βAla = NCCC(=O)O

For test [1], the target named is EphA2 extracellular domain fused to the Fc portion of an antibody (EphA2 Fc). The test is described as follows: competition ELISA: inhibition of ephrin-A5 AP binding to immobilized EphA2 Fc; average ± SE (number of experiments). (An ELISA detects its analyte on a solid surface through an enzyme-linked reagent.)
Chain of EphA2 extracellular domain fused to the Fc portion of an antibody (EphA2 Fc) (P29317 whole entry, the tested form may be a part): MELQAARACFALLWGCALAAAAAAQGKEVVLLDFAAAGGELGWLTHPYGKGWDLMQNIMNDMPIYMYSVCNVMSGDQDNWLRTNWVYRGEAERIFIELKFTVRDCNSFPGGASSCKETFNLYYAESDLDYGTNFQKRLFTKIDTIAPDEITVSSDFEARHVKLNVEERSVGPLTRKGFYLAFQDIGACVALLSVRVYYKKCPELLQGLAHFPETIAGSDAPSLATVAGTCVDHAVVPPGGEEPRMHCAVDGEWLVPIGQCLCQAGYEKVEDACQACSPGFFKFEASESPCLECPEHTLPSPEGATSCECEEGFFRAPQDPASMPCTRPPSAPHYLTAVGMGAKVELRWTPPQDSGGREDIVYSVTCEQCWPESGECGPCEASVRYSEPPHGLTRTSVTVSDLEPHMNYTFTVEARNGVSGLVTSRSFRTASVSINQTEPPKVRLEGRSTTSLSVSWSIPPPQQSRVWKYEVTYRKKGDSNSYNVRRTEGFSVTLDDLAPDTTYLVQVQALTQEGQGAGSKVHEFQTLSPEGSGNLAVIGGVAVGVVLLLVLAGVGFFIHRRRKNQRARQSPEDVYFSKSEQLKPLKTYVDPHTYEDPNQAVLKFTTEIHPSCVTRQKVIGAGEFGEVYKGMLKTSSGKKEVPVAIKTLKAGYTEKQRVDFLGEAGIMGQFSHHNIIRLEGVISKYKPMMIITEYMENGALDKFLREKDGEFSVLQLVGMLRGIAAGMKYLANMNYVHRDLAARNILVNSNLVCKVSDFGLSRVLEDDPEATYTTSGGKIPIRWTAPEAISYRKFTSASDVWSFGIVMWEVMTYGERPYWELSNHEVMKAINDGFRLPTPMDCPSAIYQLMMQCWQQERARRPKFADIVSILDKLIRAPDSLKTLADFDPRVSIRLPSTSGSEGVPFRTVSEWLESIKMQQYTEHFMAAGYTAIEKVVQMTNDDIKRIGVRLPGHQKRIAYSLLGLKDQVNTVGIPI
Test [2] has the same target. The test can be described thus: ELISA, inhibition of ephrin-A5 AP binding to immobilized EphA2 Fc; representative experiment; concentrations in nM.
The target is the same in test [3]. The test can be described thus: competition ELISA: inhibition of ephrin-A5 AP binding to EphA2 Fc.
The target is the same in test [4]. The test can be described thus: ELISA, inhibition of ephrin-A5 AP binding to immobilized EphA2 Fc; representative experiment.

On to [βAla]WLAYPDSVPYR [βA-WLA-YR], for which the figures for the IC50 in test [1] and in test [2] were 390 nM and 360 nM, respectively.
Molecule [βAla]WLAYPDSVPYGSK(Biotin) [βA-WLA-YGSK-bio] gave an IC50 in test [1] of 400 nM.
[βAla]WLAYPDSVPYGSGK(Biotin) [βA-WLA-YGSGK-bio] yielded an IC50 in test [1] of 330 nM.
Still for that read-out and setting: with [βAla]WLAYPDSVPYSPK(Biotin) [βA-WLA-YSPK-bio] the figure was 62 nM.
[βAla]WLAYPDSVPM-NH2 [βA-WLAam] returned a fold increase in potency against WLAam in test [3] of 2 fold. In addition, the half-inhibitory concentration (IC50) in test [4] is 680 nM; in test [1] it was 840 nM.
[βAla]WLAYPDSVPYK(Biotin) [βA-WLA-YK-bio] came in with an IC50 in test [1] of 730 nM.
As for [βAla]WLAYPDSVPYSK [βA-WLA-YSK], the IC50 in test [1] was 380 nM.
Molecule WLAYPDSVPM-NH2 [WLAam] displayed a fold improvement in potency against YSA1-10am in test [3] of 2 fold. The IC50 in test [1] is 1500 nM; in test [2], 1400 nM.

One may read the IC50 as the concentration needed to halve the response being measured. Low values mean inhibition by little substance, high ones a need for much substance.
